{"source": "paper PMC5033645", "about": "(Nature structural & molecular biology, 2016)", "binders": {"B1": {"name": "SV2C (full length, in neurons): SV2C-N559A (protein)", "parent chain": "MEDSYKDRTSLMKGAKDIAKEVKKQTVKKVNQAVDRAQDEYTQRSYSRFQDEDDDDDYYPPGETYSGEANDDEGSSEATEGHDEEDEIYEGEYQGIPSTNQGKDSIVSVGQPKGDEYKDRRELESERRADEEELAQQYELIIQECGHGRFQWALFFVLGMALMADGVEVFVVGFVLPSAETDLCIPNSGSGWLGSIVYLGMMVGAFFWGGLADKVGRKQSLLICMSVNGFFAFLSSFVQGYGFFLLCRLLSGFGIGGAIPTVFSYFAEVLAREKRGEHLSWLCMFWMIGGIYASAMAWAIIPHYGWSFSMGSAYQFHSWRVFVIVCALPCVSSVVALTFMPESPRFLLEVGKHDEAWMILKLIHDTNMRARGQPEKVFTVNKIKTPKQIDELIEIESDTGTWYRRCFVRIRTELYGIWLTFMRCFNYPVRENTIKLTIVWFTLSFGYYGLSVWFPDVIKHLQSDEYALLTRNVQKDKYANFSINFTMENQVHTGMEYDNGRFLGVKFKSVTFKDSVFKSCTFDDVTSVNTYFKNCTFIDTLFENTDFEPYKFIDSEFQNCSFLHNKTGCQITFDDDYSAYWIYFVNFLGTLAVLPGNIVSALLMDRIGRLTMLGGSMVLSGISCFFLWFGTSESMMIGMLCLYNGLTISAWNSLDVVTVELYPTDRRATGFGFLNALCKAAAVLGNLIFGSLVSITKAIPILLASTVLVCGGLVGLRLPDTRTQVLM"}, "B2": {"name": "SV2B: SV2B-N516A (protein)", "parent chain": "MDDYRYRDNYEGYAPNDGYYRGNEQNPEEDAQSDVTEGHDEEDEIYEGEYQGIPHPDDVKSKQTKMAPSRADGLRGQADLMAERMEDEEQLAHQYETIIDECGHGRFQWTLFFVLVLALMADGVEVFVVSFALPSAEKDMCLSSSKKGMLGLIVYLGMMAGAFILGGLADKLGRKKVLSMSLAINASFASLSSFVQGYGAFLFCRLISGIGIGGSLPIVFAYFSEFLSREKRGEHLSWLGIFWMTGGIYASAMAWSIIPHYGWGFSMGTNYHFHSWRVFVIVCALPATVSMVALKFMPESPRFLLEMGKHDEAWMILKQVHDTNMRAKGTPEKVFTVSHIKTPKQMDEFIEIQSSTGTWYQRWLVRFMTIFKQVWDNALYCVMGPYRMNTLILAVVWFTMALSYYGLTVWFPDMIRYFQDEEYKSKMKVFFGEHVHGATINFTMENQIHQHGKLVNDKFIKMYFKHVLFEDTFFDKCYFEDVTSTDTYFKNCTIESTTFYNTDLYKHKFIDCRFINSTFLEQKEGCHMDFEEDNDFLIYLVSFLGSLSVLPGNIISALLMDRIGRLKMIGGSMLISAVCCFFLFFGNSESAMIGWQCLFCGTSIAAWNALDVITVELYPTNQRATAFGILNGLCKLGAILGNTIFASFVGITKVVPILLAAASLVGGGLVALRLPETREQVLM"}, "B3": {"name": "SUMO-bSV2C: human SV2C-L4 (V473-T567) with 6xHis/SUMO tag, expressed in E. coli (domain or fragment)", "chain": "VERDKYANFTINFTMENQIHTGMEYDNGRFIGVKFKSVTFKDSVFKSCTFEDVTSVNTYFKNCTFIDTVFDNTDFEPYKFIDSEFKNCSFFHNKT"}, "B4": {"name": "SV2A: SV2A-N573A (protein)", "parent chain": "MEEGFRDRAAFIRGAKDIAKEVKKHAAKKVVKGLDRVQDEYSRRSYSRFEEEEDDDDFPAPADGYYRGEGAQDEEEGGASSDATEGHDEDDEIYEGEYQGIPRAESGGKGERMADGAPLAGVRGGLSDGEGPPGGRGEAQRRKDREELAQQYETILRECGHGRFQWTLYFVLGLALMADGVEVFVVGFVLPSAEKDMCLSDSNKGMLGLIVYLGMMVGAFLWGGLADRLGRRQCLLISLSVNSVFAFFSSFVQGYGTFLFCRLLSGVGIGGSIPIVFSYFSEFLAQEKRGEHLSWLCMFWMIGGVYAAAMAWAIIPHYGWSFQMGSAYQFHSWRVFVLVCAFPSVFAIGALTTQPESPRFFLENGKHDEAWMVLKQVHDTNMRAKGHPERVFSVTHIKTIHQEDELIEIQSDTGTWYQRWGVRALSLGGQVWGNFLSCFSPEYRRITLMMMGVWFTMSFSYYGLTVWFPDMIRHLQAVDYAARTKVFPGERVEHVTFNFTLENQIHRGGQYFNDKFIGLRLKSVSFEDSLFEECYFEDVTSSNTFFRNCTFINTVFYNTDLFEYKFVNSRLVNSTFLHNKEGCPLDVTGTGEGAYMVYFVSFLGTLAVLPGNIVSALLMDKIGRLRMLAGSSVLSCVSCFFLSFGNSESAMIALLCLFGGVSIASWNALDVLTVELYPSDKRTTAFGFLNALCKLAAVLGISIFTSFVGITKAAPILFASAALALGSSLALKLPETRGQVLQ"}}, "key": {"[1]": {"experiment": "pan-SV2 immunoblot of neuron lysates", "conditions": "glycan lost"}, "[2]": {"biological_target": "BoNT/A1 receptor-binding domain (HCA), wild type (UniProt P0DPI0 872-1296)", "experiment": "SPR"}}}
{"binder": "B1", "values": [{"measurement": "expression_or_secretion", "setting": "[1]; control: WT SV2C", "result": "decreases"}]}
{"binder": "B2", "values": [{"measurement": "expression_or_secretion", "setting": "[1]; control: WT SV2B", "result": "decreases"}]}
{"binder": "B3", "values": [{"measurement": "Kd", "setting": "[2]", "result": "~86", "unit": "nM"}, {"measurement": "koff", "setting": "[2]", "result": 0.11, "unit": "s⁻¹"}]}
{"binder": "B4", "values": [{"measurement": "expression_or_secretion", "setting": "[1]; control: WT SV2A", "result": "no change"}]}
